Reference: article PMC8961635
Values belong to the substance of their own block, whether it stands above or below them.

Legend:
human mitoNEET (human) = assay: SEC-MALS; holo-form ([2Fe-2S] cluster bound); 100 µL at ~2 mg·mL^−1 injected on Superdex 200 increase 10/300 GL, 0.5 mL·min^−1, 50 mM sodium phosphate pH 7.5, 50 mM NaCl, 10 mM DTT; monomer or dimer
human CISD2 (human) = assay: as above
[1] = biological target: LarE from Methanococcus maripaludis (Methanococcus maripaludis); assay: SEC-MALS; apo-form (as-purified protein, <5% cluster); 100 µL at ~2 mg·mL^−1 injected on Superdex 200 increase 10/300 GL, 0.5 mL·min^−1, 25 mM HEPES pH 7.5, 300 mM NaCl, 5 mM DTT; monomer or dimer
[2] = biological target: LarE from Methanococcus maripaludis (Methanococcus maripaludis); assay: SEC-MALS; holo-form ([4Fe-4S] cluster reconstituted anaerobically; analysed aerobically immediately after thawing); 100 µL at ~2 mg·mL^−1 injected on Superdex 200 increase 10/300 GL, 0.5 mL·min^−1, 25 mM HEPES pH 7.5, 300 mM NaCl, 5 mM DTT; monomer or dimer
[3] = biological target: CyuA from Methanococcus maripaludis (Methanococcus maripaludis); assay: SEC-MALS; apo-form (as-purified protein, <5% cluster); 100 µL at ~2 mg·mL^−1 injected on Superdex 200 increase 10/300 GL, 0.5 mL·min^−1, 25 mM HEPES pH 7.5, 300 mM NaCl, 5 mM DTT; monomer or dimer
[4] = biological target: CyuA from Methanococcus maripaludis (Methanococcus maripaludis); assay: SEC-MALS; holo-form ([4Fe-4S] cluster reconstituted anaerobically; analysed aerobically immediately after thawing); 100 µL at ~2 mg·mL^−1 injected on Superdex 200 increase 10/300 GL, 0.5 mL·min^−1, 25 mM HEPES pH 7.5, 300 mM NaCl, 5 mM DTT; monomer or dimer

stoichiometry N (human mitoNEET (human)): 2
Substance: human mitoNEET (domain or fragment)

stoichiometry N (human CISD2 (human)): 2
Substance: human CISD2 (domain or fragment)

stoichiometry N [1]: 2
stoichiometry N [2]: 2
Substance: LarE from Methanococcus maripaludis (enzyme)

stoichiometry N [3]: 2
stoichiometry N [4]: 2
Substance: CyuA from Methanococcus maripaludis (enzyme)
